Our source for the stoichiometry N values is PMC10017365, “Functional characterization of Vip3Aa from Bacillus thuringiensis reveals the contributions of specific domains to its insecticidal activity” (The Journal of Biological Chemistry, 2023).

Experiment [1] has as its target Vip3Aa (full-length Vip3Aa protoxin, from Bacillus thuringiensis 9816C) (Bacillus thuringiensis 9816C). The experiment in a line: SEC + other: dynamic light scattering; purified proteins on a Superdex 200 Increase 10/300 GL column; DLS of the same proteins (Fig. S2A).
Experiment [2] deals with Vip3Aa DI-DIII (domain I to domain III truncation variant, untreated) (Bacillus thuringiensis 9816C). The experiment in a line: SEC; trypsin-treated proteins (1:50 wt:wt, 4 °C, 6 h) on Superdex 200 Increase 10/300 GL, peak fractions analysed by SDS-PAGE; untreated DI-DIV and DI-DIII as controls. A general note: In gel filtration, larger molecules generally elute earlier.
Experiment [3] has as its target trypsin-activated Vip3Aa DI-DIII (DI-DIII^act) (Bacillus thuringiensis 9816C). The experiment is described as above.

For orientation: stoichiometry N means a count of units in the complex or per binding partner.

With “Vip3Aa (full-length Vip3Aa protoxin, from Bacillus thuringiensis 9816C) (natural protein)”, the stoichiometry N in experiment [1] turned out to be 4.

As to “Vip3Aa DI-DIII (domain I to domain III truncation variant, untreated) (domain or fragment)”, the stoichiometry N in experiment [2] was 4.

“trypsin-activated Vip3Aa DI-DIII (DI-DIII^act) (complex)” returned a stoichiometry N in experiment [3] of 4.
